Experimental data published in the supplement of paper PMC12042874.
± gives the uncertainty stated by the source.

assay: amyloid nucleation score (Sup35N fusion, yeast selection) (log enrichment); library NNK3; higher = more nucleation; inactive = no reads after selection
In short: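 DiMSum was used to calculate nucleation scores as log enrichment of output over input reads, centred on the mode score of non-aggregating sequences. Sequences with fewer than 100 input reads were not scored. Input and output came from Illumina sequencing of plasmid inserts in psi-negative yeast expressing peptides of 20 random codons fused to Sup35N, induced 24 hours with 100 μM copper sulfate and then grown 7 days at 30°C on medium lacking adenine and uracil.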

Substance	amyloid nucleation score
SRKALVYGSVKRLSIMSAWV	-0.626 ± 0.96
IKMGVRYGRNTVWTARCGSG	0.222 ± 0.6
GNGVTPWPAEENSSRSPMPY	inactive
HNQKSCVYMSEGSWRSL	inactive
ELDCELMIALFLLWIVHANG	-0.657 ± 0.93
QQYYVAWFCDYDLFNCMNLM	1.99 ± 0.095
NKRLAQRQWDTACFQKG	inactive
LKMSLPYNMMVIILKRGGAY	inactive
THFQEPLSESGDRCLDDGYL	inactive
YRELSTLREEMHIRY	inactive
SCGYTLWLYRCEIQRRV	inactive
FIWAREFSVLRSHRRWPTEN	inactive
LYRVLSYDLRLDKWCYKTLW	inactive
TYRLAVLS	inactive
RLVRSMAFYNHVIYL	0.012 ± 0.28
VIHEDMVLTGF	inactive
RIYKNRSSSGILLNERFPGL	-0.46 ± 1.3
DRYFLVDAKMFTGRTYLILG	-0.416 ± 0.88
RNMGYVTDNYLYTVLYYDCY	inactive
VMYNYARFRWFLCTDQ	1 ± 0.2
SLMLGYETFFMPCGQDMAKW	inactive
KVYRKKPIGYVECLLSPLKA	inactive
RVTIVPTKHHLML	inactive
KRYMIPKIYERNENYSFEQI	inactive
HSRTGLGLHKLRMAVGFCIN	inactive
LNFWTIAWARWRIFLCSVLQ	inactive
FNWMPMGEKSAWAVRVRSAC	inactive

Substance	amyloid nucleation score
CFLAENILFSN	0.024 ± 0.64
SFPWSCPASYSYQGCWWERD	inactive
LFVMVQLCQL	0.797 ± 0.13
ALYERWSTDNVWRRSSQEFL	inactive
FCGKLSCCFIRLAELFLVGK	inactive
RFVGSGCSGWCSRARDLWWL	inactive
VECNIEIHNISSFPSTEKNQ	2.41 ± 0.06
SLIIDKGPDVYCSWTVERIT	inactive
NTGVENGREVDYARGANRSP	inactive
WFYVDLFCGWTRDVNAASCL	inactive
FYWSLNSYVCASCMILFALM	inactive
LADNYVTCKS	inactive
CIPCTVTFG	inactive
MYLPWISSSGVLNRTSMSFY	0.668 ± 0.12
IAEDIRARPSVWDLMRSSAI	inactive
YFFFLRICWMDSSLVFGLLS	inactive
DLFGCPDLMMYTELIMLYW	inactive
MWFHLSYMAIFNGVSMQDVC	inactive
TPCYRFNSRYRMTFM	inactive
WMDRLFVSVTAVWRQPDVGI	1.42 ± 0.11
MFGNIRTFAPTITCMGDFTL	inactive
GCISVVSL	inactive
DRVITSNFFSSVWTQT	inactive
NNAVQLYFYRLDMSYA	inactive
LSMLI	inactive
LGGLCL	inactive
RFQYLNYCMFMVRCGHYDTS	inactive

Substance	amyloid nucleation score
WRVHHFGWAGEY	inactive
IGVYWVLPPGFFGWQNTLMI	0.161 ± 0.56
QVSLSRRISFYGHLNSDNES	inactive
MYGHIYHFRINTLWGVNL	inactive
FPPCTLSKLGSGYHLSNESS	inactive
MVLDDYIRKGG	0.073 ± 0.33
HNPLVRFAQHLLITEDQCMN	inactive
LVASSYS	inactive
WYGVVDVDW	inactive
AVLSLCINGIVALKGDSGCC	0.478 ± 0.21
VTVSAQPAIK	inactive
TRNYFNPVSRRGVTVSRGLY	inactive
FYLCKRMNGSWNTLISV	inactive
MLGLCPFKSDWLLIYRSMWC	1.32 ± 0.15
CQCEIF	0.065 ± 0.56
MYDGKNWQLAQ	inactive
SCTRIVY	inactive
FYHVTGLFT	inactive
FLCMMTVVYQFVWMMMQGAV	inactive
LVISNIFRPHSVPWIIVENS	inactive
SVDVMTGLPTWSYLCDDETR	2.2 ± 0.06
HMNGEDESDNGYIHFLRRER	inactive
WYTVRSKYANHVNDRHSRRW	-0.507 ± 0.98
SEVRSLKHVGLCIQSMGSAL	inactive
NRPTAVSFCK	inactive
